Assay [1] addresses T1, human CD79b on the cell surface (human, UniProt P40259 29-229).
T1 sequence: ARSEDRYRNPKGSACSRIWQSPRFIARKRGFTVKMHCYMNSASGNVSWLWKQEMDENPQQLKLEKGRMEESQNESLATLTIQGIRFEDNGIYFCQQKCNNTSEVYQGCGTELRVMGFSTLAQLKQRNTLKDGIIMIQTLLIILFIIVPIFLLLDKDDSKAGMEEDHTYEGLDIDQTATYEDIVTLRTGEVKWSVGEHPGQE
The experiment in a line: cell-based or functional assay.

The target of assay [2] is T2, human CD20 on the cell surface (human, UniProt P11836 1-297).
T2 sequence (looked up): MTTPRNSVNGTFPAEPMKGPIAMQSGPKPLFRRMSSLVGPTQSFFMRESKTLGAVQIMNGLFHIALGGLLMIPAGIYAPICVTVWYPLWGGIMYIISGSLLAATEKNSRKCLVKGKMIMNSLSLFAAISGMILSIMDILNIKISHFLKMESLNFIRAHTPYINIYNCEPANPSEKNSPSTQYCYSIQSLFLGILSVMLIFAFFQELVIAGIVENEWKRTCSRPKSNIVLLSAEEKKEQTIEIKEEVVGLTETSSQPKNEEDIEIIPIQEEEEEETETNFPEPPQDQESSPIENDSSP
In words: cell-based or functional assay.

Assay [3] deals with T1, human CD79b on the cell surface. In words: cell-based or functional assay. The source holds these as a separate data set.
Assay [4] has the same target. The experiment in a line: cell-based or functional assay. The source holds these as a separate data set.
Assay [5] shares this target. In words: cell-based or functional assay. This is another data set of the same source.
Assay [6] shares this target. The experiment in a line: cell-based or functional assay. This is another data set of the same source.
The target is the same in assay [7]. The experiment in a line: flow cytometry, HBL-1 cells, 1 h 37 C; control row of Table 10, same value as Table 8. How it is done:
(§1) All cells were washed with BD stain buffer (BD Biosciences; Cat #554657), centrifuged at 1200 RPM for 3 minutes, with supernatant discarded. Cells were then stained for 20 minutes at 4° C. with BD stain buffer containing AlexaFluor 647 labeled anti-human IgG secondary antibody (Jackson Immuno; Cat #109-606-098) at a 1:200 dilution along with Aqua Fixable Live/Dead stain (Invitrogen; Cat #L34957) at a 1:400 dilution. All cells were washed with BD stain buffer (BD Biosciences; Cat #554657), centrifuged at 1200 RPM for 3 mins, with supernatant discarded. Cells were analyzed using Intellicyt (Sartorius) flow cytometer and mean fluorescent intensity (MFI) was generated using Forcyt software (Sartorius). MFI was graphed and EC50 values generated using GraphPad PRISM v.8. Dose response curves were generated by transforming the x axis values using the formula […]. Data was then graphed using non-linear regression curve fit analysis “log(agonist) vs. response-variable slope (four parameter)”.

For assay [8] the target is unchanged. In words: cell-based or functional assay. This is another data set of the same source.
Assay [9] shares this target. The experiment in a line: flow cytometry, Carnaval cells, 1 h 37 C. How it is done: as §1
Assay [10] shares this target. In words: cell-based or functional assay. The source holds these as a separate data set.
The target in assay [11] is T3, recombinant extracellular domain of human CD79b, long isoform (human, UniProt P40259 29-159).
T3 construct: also called hu CD79b long
T3 sequence: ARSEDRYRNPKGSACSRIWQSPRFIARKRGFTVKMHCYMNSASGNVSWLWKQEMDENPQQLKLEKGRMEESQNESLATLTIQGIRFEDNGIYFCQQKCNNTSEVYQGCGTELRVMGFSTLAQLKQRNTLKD
The experiment in a line: SPR Biacore 8k, antibody captured by anti-Fc, 25 C. The protocol:
(§2) General Protocol for SPR Affinity Assessment: Affinity assessment of the bispecific trispecific constructs against human CD79b were measure using recombinantly expressed extracellular domain of CD79b short and long isoforms (CD9W7.001 and CD9W8.001, respectively) by Surface Plasmon Resonance (SPR) using a Biacore 8k SPR system (Biacore) at 25° C. in HBSP+ buffer. Cross-reactivity of the same antibody panel was also assessed against cyno and mouse antigens (CD9W1.001 and CD9W105.001, respectively). Briefly, a C1 sensor chip was immobilized with anti-human Fc (target immobilization levels of >400 RU) using vendor recommended amino coupling protocol. […] The association and dissociation phases were measured for 2 or 3 minutes and 30 minutes, respectively.
(§3) The raw binding sensorgrams were processed using Biacore Insight software (Biacore) by double-referencing and the processed sensorgrams were analyzed for cross-reactivity and fitted to a 1:1 Langmuir model to obtain on-rates, off-rates and affinities.

The target in assay [12] is T4, recombinant extracellular domain of human CD79b, short isoform (human, UniProt P40259 29-159).
T4 chain: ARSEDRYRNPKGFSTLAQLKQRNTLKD
In words: SPR Biacore 8k, antibody captured by anti-Fc, 25 C. The protocol:
as §2, §3

The target in assay [13] is T1, human CD79b on the cell surface. The experiment in a line: flow cytometry, HBL-1 cells, 1 h 37 C. The protocol:
as §1

Assay [14] has the same target. The experiment in a line: cell-based or functional assay. The source holds these as a separate data set.
Assay [15] has the same target. The experiment in a line: flow cytometry, Carnaval cells, 1 h 37 C; control row of Table 10, same value as Table 8. The protocol: as §1
Assay [16] has as its target T5, cynomolgus monkey CD79b antigen (cynomolgus monkey).
T5 construct: also called cyno CD79b; CD9W1.001
The experiment in a line: SPR Biacore 8k, cyno CD79b injected up to 3000 nM. How it is done: as §2, §3

The results in this text go back to patent publication US20250043019A1 (Janssen / Centocor, published 2025).

B1: C923B169 CD79bxCD20xCD3 trispecific antibody (CD9B374 Fab x C20B648 LH scFv x CD3B2030 N106A LH scFv) (other)
heavy: QVQLQESGPGLVKPSETLSLTCSVSGASISSFYWSWIRQPADEGLEWIGRISPSGKTNYIPSLKSRIIMSLDASKNQFSLRLNSVTAADTAMYYCARGEYSGTYSYSFDVWGQGTMVTVSSASTKGPSVFPLAPSSKSTSGGTAALGCLVKDYFPEPVTVSWNSGALTSGVHTFPAVLQSSGLYSLSSVVTVPSSSLGTQTYICNVNHKPSNTKVDKKVEPKSCDKTHTCPPCPAPEAAGGPSVFLFPPKPKDTLMISRTPEVTCVVVSVSHEDPEVKFNWYVDGVEVHNAKTKPREEQYNSTYRVVSVLTVLHQDWLNGKEYKCKVSNKALPAPIEKTISKAKGQPREPQVYTLPPSREEMTKNQVSLSCAVKGFYPSDIAVEWESNGQPENNYKTTPPVLDSDGSFFLVSKLTVDKSRWQQGNVFSCSVMHEALHNRFTQKSLSLSPGK
light: DIVMTQSPLSLSVTPGEPASISCRSSESLLDSEDGNTYLDWFLQKPGQSPQLLIYTLSYRASGVPDRFSGSGSDTDFTLHISSLEAEDVGLYYCMQRMEFPLTFGQGTKVEIKRTVAAPSVFIFPPSDEQLKSGTASVVCLLNNFYPREAKVQWKVDNALQSGNSQESVTEQDSKDSTYSLSSTLTLSKADYEKHKVYACEVTHQGLSSPVTKSFNRGEC
chain: EIVLTQSPATLSASPGERVTLSCSASSSVSYMNWYQQKPGQAPRRWIYDSSKLASGVPARFSGSGSGRDYTLTISSLEPEDFAVYYCQQWSRNPPTFGGGTKVEIKGGSEGKSSGSGSESKSTGGSQVQLVQSGAEVKKPGSSVKVSCKASGYTFTRSTMHWVKQAPGQGLEWIGYINPSSAYTNYNQKFQGRVTLTADKSTSTAYMELSSLRSEDTAVYYCASPQVHYDYAGFPYWGQGTLVTVSSEPKSSDKTHTCPPCPAPEAAGGPSVFLFPPKPKDTLMISRTPEVTCVVVSVSHEDPEVKFNWYVDGVEVHNAKTKPREEQYNSTYRVVSVLTVLHQDWLNGKEYKCKVSNKALPAPIEKTISKAKGQPREPQVYTLPPSREEMTKNQVSLWCLVKGFYPSDIAVEWESNGQPENNYKTTPPVLDSDGSFFLYSKLTVDKSRWQQGNVFSCSVMHEALHNHYTQKSLSLSPGKGGGGSGGGGSGGGGSGGGGSEIVLTQSPATLSLSPGERATLSCRASLSVSSMHWYQQKPGQAPRLLIYATSNLASGIPARFSGSGSGTDFTLTISSLEPEDFAVYYCQQWIFNPPTFGGGTKVEIKGGSEGKSSGSGSESKSTGGSQVQLVQSGAEVKKPGSSVKVSCKASGYTFSSYNMHWVRQAPGQGLEWMGAIYPGAGDTSYAQKFQGRVTITADESTSTAYMELSSLRSEDTAVYYCARSNYYGSSGWYFDVWGKGTTVTVSS
Regarding B1, the “EC50, decrease of IL-10 secretion by CD79b mutant OCI-Ly10 cells (MSD assay)” value in [1] worked out at 15.4 nM. The “EC50, long-term Incucyte cytotoxicity, K562 CD20” value in assay [2] was 4.08 nM. Further, in assay [3], the “EC50, long-term Incucyte cytotoxicity, K562 CD79b” value is 1.04 nM.

B2: 79C3B646 CD79bxCD3 bispecific antibody (bispecific antibody, human IgG1, lambda, L234A L235A)
heavy: QVQLQQSGPGLVKPSQTLSLTCAISGDSVSSNSATWNWIRQSPSRGLEWLGRTYYRSKWYNDYTVSVKSRITINPDTSKNQFSLQLNSVTPEDTAVYYCTRVDIAFDYWGQGTLVTVSSASTKGPSVFPLAPSSKSTSGGTAALGCLVKDYFPEPVTVSWNSGALTSGVHTFPAVLQSSGLYSLSSVVTVPSSSLGTQTYICNVNHKPSNTKVDKKVEPKSCDKTHTCPPCPAPEAAGGPSVFLFPPKPKDTLMISRTPEVTCVVVSVSHEDPEVKFNWYVDGVEVHNAKTKPREEQYNSTYRVVSVLTVLHQDWLNGKEYKCKVSNKALPAPIEKTISKAKGQPREPQVYTLPPSREEMTKNQVSLSCAVKGFYPSDIAVEWESNGQPENNYKTTPPVLDSDGSFFLVSKLTVDKSRWQQGNVFSCSVMHEALHNRFTQKSLSLSPGK
light: QTVVTQPPSVSEAPRQRVTISCSGSSSNIGNHGVNWYQQLPGKAPKLLIYNDDLLPSGVSDRFSGSTSGTSGSLAISGLQSEDEADYYCAAWDDSLNGVVFGGGTKLTVLGQPKAAPSVTLFPPSSEELQANKATLVCLISDFYPGAVTVAWKADSSPVKAGVETTTPSKQSNNKYAASSYLSLTPEQWKSHRSYSCQVTHEGSTVEKTVAPTECS
chain: EIVLTQSPATLSASPGERVTLSCSASSSVSYMNWYQQKPGQAPRRWIYDSSKLASGVPARFSGSGSGRDYTLTISSLEPEDFAVYYCQQWSRNPPTFGGGTKVEIKGGSEGKSSGSGSESKSTGGSQVQLVQSGAEVKKPGSSVKVSCKASGYTFTRSTMHWVKQAPGQGLEWIGYINPSSAYTNYNQKFQGRVTLTADKSTSTAYMELSSLRSEDTAVYYCASPQVHYDYAGFPYWGQGTLVTVSSEPKSSDKTHTCPPCPAPEAAGGPSVFLFPPKPKDTLMISRTPEVTCVVVSVSHEDPEVKFNWYVDGVEVHNAKTKPREEQYNSTYRVVSVLTVLHQDWLNGKEYKCKVSNKALPAPIEKTISKAKGQPREPQVYTLPPSREEMTKNQVSLWCLVKGFYPSDIAVEWESNGQPENNYKTTPPVLDSDGSFFLYSKLTVDKSRWQQGNVFSCSVMHEALHNHYTQKSLSLSPGK
notes: IgG1 bispecific; CD79b Fab arm plus CD3 scFv-Fc arm; also called 79C3B646 bsAb; CD9B330-N31S x CD3B2030-N106A
For B2, the “IC50, CARNAVAL killing (Incucyte)” value in assay [4] was 1.39 nM. In assay [5], the “IC50, T-cell killing of OCI-Ly10 (Incucyte)” value turned out to be 18.3 nM. Besides, the “IC50, T-cell killing of HBL-1 (Incucyte)” value in assay [6] is 0.257 nM. The molecule also returned an EC50 in assay [7] of 97 nM. Also, in [8], the “IC50, CARNAVAL killing, 72 h (FACS)” value came out at 0.29 nM; the “IC50, HBL-1 killing, 72 h (FACS)” value stood at 0.73 nM; the “IC50, OCI-LY10 killing, 72 h (FACS)” value is more than 100 nM. This molecule also gave a half-maximal effective concentration (EC50) in assay [9] of 44 nM. In addition, the “IC50, Daudi killing (Incucyte)” value in assay [10] is 0.597 nM. The Kd in assay [11] is 0.022 nM. Moreover, the dissociation constant (Kd) in [12] came out at 0.58 nM. Further, the EC50 in [13] came out at 97 nM. Moreover, in assay [14], the “Cmax (maximum cytotoxicity), donor 1” value was 9%; the “Cmax (maximum cytotoxicity), donor 2” value is 14%; the “Cmax (maximum cytotoxicity), donor 3” value worked out at 35%; the “EC50, autologous B-cell depletion, donor 1” value came out at 40 nM. In assay [14], the “EC50, autologous B-cell depletion, donor 2” value was determined as 6 nM and the “EC50, autologous B-cell depletion, donor 3” value was found to be 8 nM. Also, in [15], the concentration giving a half-maximal response (EC50) amounted to 44 nM. In assay [16], the Kd is more than 3000 nM.
